Measured values published in patent US10208121B2, “Anti-Axl antagonistic antibodies” (BERGEN TEKNOLOGIOVERFORING AS, priority 2014, dated 2019).
“Also recorded” adds a separate entry of the source. Blank lines part the entries; values can stand above or below the molecule they belong to.

Assays:
rhAxl-Fc = biological target: T1, rhAxl-Fc (Homo sapiens, UniProt P30530); assay: Biacore competitive binding study on rhAxl-Fc (two sample injection); settings: for competition for Axl binding with control antibody MAB154 / inhibition of Gas6 binding to Axl: rhAxl saturated with antibody; for competition for Axl binding with control antibody MAB154: then MAB154 at 25 μg/mL; for inhibition of Gas6 binding to Axl: then rhGas6 or rmGas6 at 25 μg/mL; for blocking of binding of the other antibody (10C9 / 10G5) to Axl: rhAxl saturated with first antibody, second antibody at 25 μg/mL
T1 construct: Soluble recombinant antigens corresponding to the extracellular domains of members of the human TAM receptor family; purchased R&D Systems 154-AL
Experimental: A competitive binding study was performed using Biacore 3000 instrument (GE Healthcare) and Binding Analysis wizard with several cycles of two samples injection. As a first sample, a saturating concentration of MAb 10C9 (790 nM or 120 μg/mL) or 10G5 (160 nM or 24 μg/mL) was injected over the surface of a CM5 sensor chip coated with rhAxl-Fc (using amine coupling) for 3 min at flow rate of 30 μL/min followed by 2.5 min stabilization (HBS-EP buffer alone) before the injection of the second sample. The following second samples were used: recombinant human (rh) Gas6 (R&D Systems, Cat. no. 885-GS), recombinant mouse (rm) Gas6 (R&D Systems, Cat. no. 986-GS/CF) and a panel of anti-Axl antibodies, such as MAB154 (R&D Systems, Cat. no. MAB154), 10C9 and 10G5; all at concentration 25 μg/mL. The second sample was injected for 3 min, followed by 2.5 min stabilization (buffer alone) and regeneration of the surface by 30 sec injection of a regeneration solution (10 mM HCl, 1 M NaCl) at flow rate 50 μL/min.

[1] = biological target: T2, mouse Axl (rmAxl-Fc chimera) (Mus musculus, UniProt Q00993); assay: Biacore binding analysis on immobilized mouse Axl; settings: 10 μg/mL, 25° C.
T2 construct: The soluble recombinant antigens corresponding to human Axl (rhAxl-Fc chimera; R&D Systems, Cat. no; 154-AL), mouse Axl (rmAxl-Fc chimera; purchased R&D Systems 854-AX
Experimental: The binding experiments were performed using Biacore 3000 instrument (GE Healthcare) at 25° C. The soluble recombinant antigens corresponding to human Axl (rhAxl-Fc chimera; R&D Systems, Cat. no. 154-AL), mouse Axl (rmAxl-Fc chimera; R&D Systems, R&D Systems; Cat. no. 854-AX) and human Tyro3 (rhTyro3/Dtk-Fc chimera; R&D Systems, Cat. no. 859-DK) were immobilized on the surface of CM5 sensor chip using amine coupling at the surface density of 1,308.0, 2,115.9 and 1,429.0 RU, respectively. The Biacore runs were performed in an automatic mode using Binding analysis wizard.
The sample containing either MAb 10C9, MAb 10G5 or recombinant mouse (rm) Axl-ligand Gas6 (R&D Systems, Cat. no. 986-GS/CF) at concentration 10 μg/mL in HBS-EP buffer (GE Healthcare) was injected over the surfaces with immobilized antigens at flow rate of 30 μL/min for 3 min (association) followed by 5 min dissociation.

Axl receptor protein = biological target: T3, Axl receptor protein (Homo sapiens, UniProt P30530); assay: Western blot analysis of Axl receptor protein expression after antibody treatment; assay type: cell-based; settings: MDA-MB-231 cells, 100 μg/mL, 20 hrs, versus irrelevant IgG or MAb#3
T3 construct: endogenous in cells; host or cells: MDA-MB-231
Experimental: Western blot analysis illustrating effect of treatment with either antibodies of multikinase inhibitor Foretinib on Axl receptor expression. Highly aggressive human mammary carcinoma cells MDA-MB-231 were treated with either antibodies (irrelevant IgG control and anti-Axl MAbs 10C9, 10G5 and MAb#3) or Foretinib for […] before loading on SDS-PAA gel. The levels of actin protein were used as loading controls.
The expression of Axl receptor protein in MBA-MD-231 cells treated with different antibodies was examined by Western blot analysis. The cells were seeded in a 6-well plate at density of 5×10^5 cells per well and cultured overnight before treatment initiation. The cells were treated for 20 hrs in the presence of isotype control (mouse IgG2b), anti-Axl antibodies (10C9, 10G5 and MAb#3) at concentrations of 100 μg/mL or multikinase inhibitor Foretinib (targets Met, Ron, Axl, Tie-2, and VEGFR2) at a concentration of 0.5 μM followed by harvesting by centrifugation at 1,200 rpm for 5 min and washing with sterile PBS. The cells were collected by centrifugation and resuspended in NP40-lysis buffer followed by 30 min incubation on ice. The cell lysates were cleared by centrifugation (12,000 rpm, 4° C., 5 min) and the protein concentrations were determined using BCA protein assay. […]

T2 sequence (Q00993 19-445 limits assumed, change not shown): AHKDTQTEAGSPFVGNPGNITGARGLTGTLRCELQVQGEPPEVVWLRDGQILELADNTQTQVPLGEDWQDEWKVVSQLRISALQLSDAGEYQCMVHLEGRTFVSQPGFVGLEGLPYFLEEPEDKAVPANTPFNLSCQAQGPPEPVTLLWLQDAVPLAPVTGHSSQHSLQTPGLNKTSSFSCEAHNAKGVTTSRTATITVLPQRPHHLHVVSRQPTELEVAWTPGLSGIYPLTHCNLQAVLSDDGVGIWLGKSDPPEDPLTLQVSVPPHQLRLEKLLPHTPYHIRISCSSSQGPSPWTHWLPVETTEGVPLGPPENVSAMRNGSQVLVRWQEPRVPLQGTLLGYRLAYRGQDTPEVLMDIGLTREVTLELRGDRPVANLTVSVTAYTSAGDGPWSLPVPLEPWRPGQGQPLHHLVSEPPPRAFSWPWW

competition for Axl binding with control antibody MAB154 (rhAxl-Fc): did not compete
blocking of binding of the other antibody (10C9 / 10G5) to Axl (rhAxl-Fc): blocked binding of each other
binding to mouse Axl [1]: no binding
Axl protein level (Western blot) (Axl receptor protein): significant reduction of Axl protein
B1: 10G5: mouse anti-Axl monoclonal antibody from hybridoma WR-10G5-E5, IgG1; VH SEQ ID NO: 21, VL SEQ ID NO: 22 (antibody, listed as Mus musculus, V domains shown)
VH: QVQLQQSGAELVRPGASVKLSCKASGYSFTDFYINWVRQRPGQGLEWIARIFPGGDNTYYNEKFKGKATLTAEESSSTAYIQLSSLTSEDSAVYFCARRGLYYAMDYWGQGISVTVSS
VL: DVLMTQTPLSLPVSLGDQASISCRSSQSLVHSNGIPYLHWYLQKPGQSPKLLIYRVSNRFSGVPDRFSGSGSGTDFTLKISRVEAEDLGVYFCSQGTHVPPTFGGGTKLEIK
inhibition of Gas6 binding to Axl (rhAxl-Fc): inhibit the binding of Axl to its ligand Gas6; also recorded: inhibited Axl binding by its ligand Gas6

binding to mouse Axl [1]: no binding
B2: 10C9: mouse anti-Axl monoclonal antibody from hybridoma UT-10C9-B9, IgG2b; VH SEQ ID NO: 3, VL SEQ ID NO: 4 (antibody, listed as Mus musculus, V domains shown)
VH: QVQLQQPGPELVKPGASVKISCKTSDYNFTRYYIHWVKQRPGQGLEWIGWIYPGTGDSKYNEKFKGRATLTADTSSSTAYMQLSSQTSEDSAVYFCARNGNYWYFDVWGAGTAVTVSS
VL: DIVMTQAAPSGPVTPGESVSISCRSSKSLLHSNGNTYLYWFLQRPGQSPQLLIYRMSNLASGVPDRFSGSGSGTAFTLRISRVEAEDVGIYYCMQHREYPFTFGGGTKLEIK
competition for Axl binding with control antibody MAB154 (rhAxl-Fc): did no inhibit; also recorded: did not compete
inhibition of Gas6 binding to Axl (rhAxl-Fc): inhibit the binding of Axl to its ligand Gas6; also recorded: cannot be bound; also recorded: inhibited Axl binding by its ligand Gas6
blocking of binding of the other antibody (10C9 / 10G5) to Axl (rhAxl-Fc): cannot be bound; also recorded: blocked binding of each other
Axl protein level (Western blot) (Axl receptor protein): significant reduction in the amount of Axl receptor protein
